± gives the standard error. For some of these results: Variants at the floor of the assay were thinned out.
B1: glmS ribozyme (parent)
chain: AUAAAAGCGCCAGAACUACAGAAAUGUAGUUGACGAGGAGGAGGUUUAUCGAAUUUUCGGCGGAUGCCUCCAAA

Experiments:
Settings in all cases: with glucosamine-6-phosphate
[1] = variants of: B1; experiment: kcat; higher = faster cleavage; RNA array
Procedure, shortened: (§1)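 Barcoded ribozyme variants, transcribed in situ by E. coli RNA polymerase on sequenced MiSeq chips, were followed via a hybridised Cy3 probe at 37 °C. Glucosamine-6-phosphate ranged from 40 μM to 10 mM in HEPES/KCl/Mg(OAc)2 buffer. kobs came from decay fits to per-tile medians, and kcat and KM from weighted Michaelis–Menten fits.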

[2] = variants of: B1; experiment: KM; higher = weaker cofactor use; RNA array
Procedure, shortened: as §1

[3] = variants of: B1; experiment: self-cleavage kobs at 40 uM GlcN6P; higher = faster cleavage; RNA array
Procedure, shortened: as §1

[4] = variants of: B1; experiment: self-cleavage kobs at 640 uM GlcN6P; higher = faster cleavage; RNA array
Procedure, shortened: as §1

[5] = variants of: B1; experiment: self-cleavage kobs at 2500 uM GlcN6P; higher = faster cleavage; RNA array
Procedure, shortened: as §1

[6] = variants of: B1; experiment: self-cleavage kobs at 10000 uM GlcN6P; higher = faster cleavage; RNA array
Procedure, shortened: as §1

[7] = variants of: B1; experiment: self-cleavage kobs at 160 uM GlcN6P; higher = faster cleavage; RNA array
Procedure, shortened: as §1

| Variant | kcat [1] | KM [2] | self-cleavage kobs at 40 uM GlcN6P [3] | self-cleavage kobs at 640 uM GlcN6P [4] | self-cleavage kobs at 2500 uM GlcN6P [5] | self-cleavage kobs at 10000 uM GlcN6P [6] | self-cleavage kobs at 160 uM GlcN6P [7] |
| --- | --- | --- | --- | --- | --- | --- | --- |
| U30G U55G | 0.00756 ± 0.0019 s⁻¹ | 1440 ± 590 µM | 0.00025 ± 5.1e-05 s⁻¹ | 0.00222 ± 0.00047 s⁻¹ | 0.00378 ± 0.00086 s⁻¹ | 0.00866 ± 0.0016 s⁻¹ | – |
| U30C C71G | 4.29e-05 ± 9.8e-06 s⁻¹ | – | – | 4.3e-05 ± 1.8e-05 s⁻¹ | 7.05e-05 ± 1.2e-05 s⁻¹ | 3.35e-05 ± 7.1e-06 s⁻¹ | – |
| A14C A53C | 0.00124 ± 0.00016 s⁻¹ | 2550 ± 490 µM | 2.58e-05 ± 1.2e-05 s⁻¹ | 0.000267 ± 3.4e-05 s⁻¹ | 0.000659 ± 7.9e-05 s⁻¹ | 0.000924 ± 0.00013 s⁻¹ | 6.39e-05 ± 1e-05 s⁻¹ |
| A39G C70G | 0.000172 ± 3.8e-05 s⁻¹ | – | 0.000112 ± 1.6e-05 s⁻¹ | 0.000314 ± 4.7e-05 s⁻¹ | 0.000245 ± 3.2e-05 s⁻¹ | 0.000132 ± 1.8e-05 s⁻¹ | 0.000143 ± 2.3e-05 s⁻¹ |
| U55C C71G | 0.000144 ± 9.8e-06 s⁻¹ | 1810 ± 300 µM | – | 3.46e-05 ± 9.7e-06 s⁻¹ | 8.92e-05 ± 1.3e-05 s⁻¹ | 0.000118 ± 1.9e-05 s⁻¹ | – |
| U30A A36U | < 1e-05 s⁻¹ | – | – | < 1e-05 s⁻¹ | – | – | – |
| A53U U54A | 0.0314 ± 0.0026 s⁻¹ | 1760 ± 180 µM | 0.000727 ± 0.00011 s⁻¹ | 0.00817 ± 0.0019 s⁻¹ | 0.0161 ± 0.0071 s⁻¹ | 0.0279 ± 0.0062 s⁻¹ | 0.00236 ± 0.00084 s⁻¹ |
| U30C C50U | < 1e-05 s⁻¹ | – | – | – | – | – | – |
| C11A C61G | 1.14e-05 ± 3.7e-06 s⁻¹ | – | < 1e-05 s⁻¹ | – | – | – | – |
| A14G U57C | 0.000646 ± 0.00012 s⁻¹ | 2530 ± 740 µM | – | 0.000142 ± 1.8e-05 s⁻¹ | 0.000276 ± 4.7e-05 s⁻¹ | 0.000577 ± 0.0001 s⁻¹ | 3.29e-05 ± 1.4e-05 s⁻¹ |
| G62A C70A | 4.15e-05 ± 2e-05 s⁻¹ | – | < 1e-05 s⁻¹ | 7.27e-05 ± 2.4e-05 s⁻¹ | – | – | – |
| A15U U31C | 0.00128 ± 0.0001 s⁻¹ | 2710 ± 340 µM | 1.67e-05 ± 5.8e-06 s⁻¹ | 0.000233 ± 1.9e-05 s⁻¹ | 0.000703 ± 6.9e-05 s⁻¹ | 0.000981 ± 7.1e-05 s⁻¹ | 7.32e-05 ± 7.2e-06 s⁻¹ |
| G40C U65A | 0.000379 ± 3.9e-05 s⁻¹ | 1830 ± 350 µM | – | 0.0001 ± 1.9e-05 s⁻¹ | 0.000199 ± 3.6e-05 s⁻¹ | 0.000346 ± 6.3e-05 s⁻¹ | 3.58e-05 ± 1.5e-05 s⁻¹ |
| G13A C70A | 2.43e-05 ± 6.3e-06 s⁻¹ | – | – | – | – | – | – |
| G37U C71G | 1.72e-05 ± 4.2e-06 s⁻¹ | – | – | – | – | – | – |
| A14U C16A | 0.000551 ± 6.3e-05 s⁻¹ | 1840 ± 400 µM | – | 0.000126 ± 1.9e-05 s⁻¹ | 0.000363 ± 4.8e-05 s⁻¹ | 0.000451 ± 5.1e-05 s⁻¹ | 5.14e-05 ± 1.1e-05 s⁻¹ |
| G37A G41U | 0.000119 ± 2.1e-05 s⁻¹ | – | – | 4.8e-05 ± 1.3e-05 s⁻¹ | 0.000126 ± 1.7e-05 s⁻¹ | 0.0001 ± 1.2e-05 s⁻¹ | – |

| Variant | kcat [1] | KM [2] | self-cleavage kobs at 40 uM GlcN6P [3] | self-cleavage kobs at 640 uM GlcN6P [4] | self-cleavage kobs at 2500 uM GlcN6P [5] | self-cleavage kobs at 10000 uM GlcN6P [6] | self-cleavage kobs at 160 uM GlcN6P [7] |
| --- | --- | --- | --- | --- | --- | --- | --- |
| U46G U55G | 0.00623 ± 0.0016 s⁻¹ | 2040 ± 690 µM | 0.000153 ± 2.1e-05 s⁻¹ | 0.00125 ± 0.00021 s⁻¹ | 0.00414 ± 0.001 s⁻¹ | 0.00533 ± 0.00091 s⁻¹ | 0.000395 ± 8.6e-05 s⁻¹ |
| A36G A53U | 1.3e-05 ± 2.6e-06 s⁻¹ | – | < 1e-05 s⁻¹ | – | – | – | < 1e-05 s⁻¹ |
| G13C U30G | 3.93e-05 ± 3.7e-06 s⁻¹ | 2100 ± 830 µM | – | – | – | 3.23e-05 ± 9.3e-06 s⁻¹ | – |
| U30A U47C C70G | 4.3e-05 ± 6.7e-06 s⁻¹ | – | – | – | 3.41e-05 ± 1.5e-05 s⁻¹ | 3.72e-05 ± 1.7e-05 s⁻¹ | – |
| U45G C67U | 0.00709 ± 0.0025 s⁻¹ | 2100 ± 1100 µM | 0.000204 ± 3.5e-05 s⁻¹ | 0.00181 ± 0.00028 s⁻¹ | 0.00248 ± 0.00057 s⁻¹ | 0.00733 ± 0.00094 s⁻¹ | 0.000462 ± 6.3e-05 s⁻¹ |
| A14G A15G C50U C68U | 5.28e-05 ± 7.8e-06 s⁻¹ | – | – | 7.36e-05 ± 2e-05 s⁻¹ | 4.92e-05 ± 1.8e-05 s⁻¹ | 4.76e-05 ± 1.2e-05 s⁻¹ | – |
| A12U C67G | 0.00362 ± 0.00062 s⁻¹ | 791 ± 210 µM | 0.00019 ± 2.1e-05 s⁻¹ | 0.0015 ± 0.00029 s⁻¹ | 0.00226 ± 0.00035 s⁻¹ | 0.00426 ± 0.00054 s⁻¹ | 0.000542 ± 0.00011 s⁻¹ |
| A12G G59U | 1e-05 ± 1.9e-06 s⁻¹ | – | – | – | – | – | – |
| C10G C50U | < 1e-05 s⁻¹ | – | < 1e-05 s⁻¹ | – | – | < 1e-05 s⁻¹ | – |
| G66A | 0.0375 ± 0.011 s⁻¹ | 2780 ± 890 µM | 0.00059 ± 1.2e-05 s⁻¹ | 0.00697 ± 0.0004 s⁻¹ | 0.016 ± 0.00099 s⁻¹ | 0.0316 ± 0.0015 s⁻¹ | 0.0016 ± 6.7e-05 s⁻¹ |
| U56G A64U | 9.52e-05 ± 2.5e-05 s⁻¹ | – | – | – | 3.01e-05 ± 1.5e-05 s⁻¹ | 6.57e-05 ± 1.9e-05 s⁻¹ | < 1e-05 s⁻¹ |
| C10A A53G | 1.35e-05 ± 4.5e-06 s⁻¹ | – | < 1e-05 s⁻¹ | – | – | – | < 1e-05 s⁻¹ |
| A12G C70U | 0.00188 ± 0.00036 s⁻¹ | 4460 ± 1400 µM | 1.71e-05 ± 6.8e-06 s⁻¹ | 0.00025 ± 2.2e-05 s⁻¹ | 0.00055 ± 4.3e-05 s⁻¹ | 0.00139 ± 7.5e-05 s⁻¹ | 7.66e-05 ± 6.8e-06 s⁻¹ |
| G32A A39G | 0.00635 ± 0.0016 s⁻¹ | 6190 ± 2000 µM | 3.65e-05 ± 8.1e-06 s⁻¹ | 0.000619 ± 9.3e-05 s⁻¹ | 0.00165 ± 0.0003 s⁻¹ | 0.00403 ± 0.00055 s⁻¹ | 0.000271 ± 7.2e-05 s⁻¹ |
| A36G C71G | 1.32e-05 ± 3.6e-06 s⁻¹ | – | – | < 1e-05 s⁻¹ | – | – | – |
| U47G A52G | 0.000681 ± 0.00017 s⁻¹ | 1570 ± 620 µM | – | 0.00017 ± 2.3e-05 s⁻¹ | 0.000443 ± 6.8e-05 s⁻¹ | 0.000619 ± 0.00013 s⁻¹ | 8.74e-05 ± 1.5e-05 s⁻¹ |

— the supplement of paper PMC7125110
